Measured values reported in the RNAGym collection of RNA variant scans (doi:10.1073/pnas.2313332121).

B1: TPR t1 (parent)
chain: GACCAAUCUGCCCUCAGAGCUCGAGAACAUCUUCGGAUGCAGAGGAGGCAGGCUUCGGUGGCGCGAUAGCGCCAACGUCCUCAACCUCCAAUGCAUCCCACCACAUGAUGAUGCCUGAAGAGCCUUGGUUUUUUG

Variants of: B1
Assay: polymerase ribozyme fitness, log enrichment relative to wild type (log ratio); higher = more active; in vitro selection for triplet polymerase activity
Summary of the method: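 Fitness measures genotype enrichment against wild-type enrichment on a logarithmic scale, with inverse-variance-weighted averaging of replicates. The logarithm is base 2, and genotypes were kept only with ≥10 input reads and ≥1 read per output in Illumina sequencing. The sequenced libraries came from one triplicate in vitro selection round, including frozen incubation at −7 °C, of PCR-built, transcribed mutant libraries of each subunit of a heterodimeric triplet polymerase ribozyme.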

Row | Variant | polymerase ribozyme fitness (log ratio)
1 | GACCAAUCUGCCCUCAGAGCUCGAGAACAUCUUCGGAUGCAGAGGAGGCAGACUUCGGUGGCGCGAUAUCGCCAACGUGCUCAACCACCUAUGCAUCCCACCACAUGAUGAUGCCAGAAGAGCCUUGGUUUUUUG [G52A G69U C79G U87A A90U U116A] | -3.3
2 | GACCAAUCUGCCCUCAGAGCUCGAGAACAUCUUUGGAUGCAGAGGAGGCAGGCUUCGGUGGCGCGAUAGCGCCAACGUCCUCAACCUCCAAUGCAUCCCACCACAUGAUGAAGCCUGAAGAACCUUGGUUUUUUG [C34U U112A G122A] | -5.94
3 | GACCAUUAUGCCCUCAGAGCUCGAGAACAUCUUCGGAUGCAGAGGAGGCAGGCUUCGGUGGCGCGAUAGCGCCAACGUCCUCAACCUCCAAUGCAUCCCACCACAUGAUGAUGCCUGAAGAGCCUUGGAUUUUUG [A6U C8A U129A] | -1.48
4 | GACCAAUCUGCCCUCAGAGCUCGAGAACCUCUUCGGCUGCAGAGGAGGCAGGAUUCGGUGGCGCGAUAGCGCCAACGUCCUCAACCUCCAAUGCAUCCCACCACAUGAUUAUGCCUGAAGAGCCUUGGUUUUUUG [A29C A37C C53A G110U] | -5.11
5 | GACCAAUCUGCCCUCAGAGCUCGAGAACAUCUUCGGAUGCAGAGGAGGCAGGCUUCGGUGGCGCGAUAGCGCCAACGUCCUCAACCUCCAUUGCAACCCACCACAUGAUGAUGCCUGAAGAGCCUUGGUUUUUUG [A91U U96A] | -2.42
6 | GACCAAUCUGCCCUCAGAGCUCGAGAACAUCUUCGGAUGCAGAGGAGGCAGGCUUCGGUGGCACGAUAGCGCGAACGUCCUCAACCUCCAAUGCAUCCCACCACAUGAUGAUGCCUGAAGAGCCUUGGUUUUUUG [G63A C73G] | -4.71
7 | GACCAAUCUGCCCUCAGAGCUCGAGAACAUCUUCGGAUGCAGAGGAGGCAGGCUUCGGUGGCGCGAUAGCGCCAACGUCCUCAACCUCCAUUGCAUCCCACCACAUGAUGAUGCCUGAAGAGCCUUUGUUUUUUG [A91U G127U] | -3.19
8 | GACCAAUCUGCUCUCAGAGCUCGAGAACAUCUUCGGAUGCAGAGGAGGCAGGCUUGGGUGGCGCGAUAGCGCCAACGUCCUCAACCUCCAAUGCAUCCCACCACAUGAUGAUGCCUGAAGAGCCUUGGUUUUUUG [C12U C56G] | -0.12
9 | GACCAAUCUGCCCUCAGAGCUCGAGAACAUCUUCGGAUGCACAGGAGGCAGGCUUUGGUGGCGCGAUAGCGCCAACGUCCUCAACCUCCAAUGCAUCCCACCACAUGAUGAUGCCUGAAGAGCAUUGGUUUUUUG [G42C C56U C124A] | 0.861
10 | GACCAAUCUGCCCUCAGAGCUCGAGAACAUCUUCGGAUGCAGAGGAGACAGGCUUCGGUGGCGCGAUAGCGCCAACGUCCUCAACCUCCAAUGCAUCCCACCACAAGAUGAUGCCUGAAGAGCCUUGGUUUUUUG [G48A U106A] | -0.42
11 | GACCAAUCUGCGCUCAGAGCUCGAGAACAUCUUCGGAUGCAGAGGAGGCAGGCUUCGGUGGCGCGAUAGCGCCAACGUCCUCAACGUCGAAUGCAUCCCACCAUAUGAUGAUGCCUGAAGAGCCUUGGUUUUUUG [C12G C86G C89G C104U] | -1.35
12 | GACCAAUCUGCCCUCAGAGCUCGAGAACAUCUUCGGAUGCAGAGGAGGCAGGCUUCGGUGGCGCGAUAGGGCCAACGGCCUCAACCUCCAAUGCAUCCCACCACAUGAUGAUGCCUGAAGAGCCUUGGUUUUUUG [C70G U78G] | -2.07
13 | GACCAAUCUGCCCUCACAGCUCGAGAACAUCUUCGGAUGCAGAGGAGGCAGGCUUCGGUGGCGCGAUAGCGCCAACGUCGUCAACCUCCAAUGCAUCCCACCACAUGAUGAUGCCUGAAGAGCAUUGGUUUUUUG [G17C C80G C124A] | -8.59
14 | GACCAAUCUGCCCUCAGAGCUCGAGAACAUCUUCGGAUGCAGAGGAGGCAGGCUUCGGUGGCGCGAUAGCGCCAACGUCCUCAACCUCCAAUGCAUCCCACCACAUGAUGAUGGCUUAAGAGCCUUGGUUUUUUG [C114G G117U] | -3.8
15 | GACCAAUCUGCCCUCAGAGCUCGAGAACAUCUUCGGAUGGAGACGAGGCAGGCUUCGGUGGCGCGAUAGCGCCUACGGCCUCAACCUCCAAUGCAUCCCACCACAUGAUGAUGCCUGAAGAGCCUUGGUUUUUUG [C40G G44C A74U U78G] | -2.88
16 | GACGAAUCUGCCCUCAGAGCUCGAGGACAUCUUCGGAUGCAGAGGAGGCAGGCUUCGGUGGCGCGAUAGCGCCAACGCCCUCAACCUCCAAUGCAUCCUACCACAUGAUGAUGGCUGAAGAGCCUUGGUUUCUUG [C4G A26G U78C C99U C114G U132C] | -5.4
17 | GACCAAUAUGCCCUCAGAGCACGAGAACAUCUUGGGAUGCAGAGGAGGCAGGCUUCGGUGGCGCGAUAGAGCCAACGUCCUCAACCUCCAAUGCAUCCCACCACAUGAGGAUGCCUGAAGAGCCUUGGUUUUUUG [C8A U21A C34G C70A U109G] | -5.88
18 | GACCAAUCUGCGCUCAGAGCUCGAGAACAUCUUCGGAUGGAGAGAAGGCAGGCUUUGGUGGCGCGAUAGCGCCAACGUCCUCAACCUCCAAUGCAUCCCACCACAUGAUGAUGCCUGAAGAGCCUUGGUUUUUUG [C12G C40G G45A C56U] | -1.34
19 | GACCAAUCUGCCCUCAGAGCUCGAGAACAUCUUCGGAUGCAGAGGAGGCAGGCUUCGGUGGCGCGAUAGCGCCAACGUCCUCAACCUUCAAUGCAUCCCACCACAUGAUGAAGCCUGAAGAGCCUUGGUUUUUUG [C88U U112A] | 0.961
20 | GACCAAUCUGCCCUCAGAGCUCGAUGACAUCUUCGGAUGCAGAGGAGGCAGGCUUCGGUGGCGUGAUAGCGCCAACGUCCUCAACCUCCAAUGCAUCCCACCACAUGAUGAUGCCUGAAGAGCCUUGGUUUUUUG [G25U A26G C64U] | -2.74
21 | GACCAAUCUGCCCUCAGAGCUCGAGAACAUCUUCGGAUGCAGAGGAGACAGGCUUCGGUGCCGCGAUAGCGCCAACGUCCUCAACCUCCAAUGCAUCCCACCACAUGAUGAUGCCUGAAGAGCCUUGGUUUUUUG [G48A G61C] | -1.66

Row | Variant | polymerase ribozyme fitness (log ratio)
22 | GACCAAUCUGCCCGCAGAGCCCGAGAACAUCUUCGGAUGCAGAGGAGGCAGGCUUCGGUGGCGCGAUAGCGCCAACGUCCUCAACCUCCAAUGCAUCCCACCACAUGAUGAUGCCUGAAGAGCCUUGGUUUUUUG [U14G U21C] | -2.74
23 | GACCAAUCUGCUCUCAGAGCUCGAGAACAUCUUCGGAGGCAGAGGAGGCAGGCUUCGGUGGCGCGAUAGCGGCAACGUCCUCAACCUCCAAUGCAUCCCACCACAUGAUGAUGCCUGAAGAGCCUUGGUUUUUUG [C12U U38G C72G] | -0.666
24 | GACCAAUCUGCCCUCAGCGCUCGAGAACAUCUUCAGAUGCAGAGGAGGCAGGCUUCGGCGGCGCGAUAGCGCCAACGUCCUCAACCUCCAAUGCAUCCCACCACAUGAUGAAGCCUGAAGAGCCUUGGUUUUUUG [A18C G35A U59C U112A] | -6.14
25 | GACCAAUCUGCCCUCAGAGCUCGAGAACAUCUUCGGCUGCAGAGGAGGCAGGCUUCGGUGGCGCGAUAGCGCCAACGUCCUCAACCUCCAAUGCAUCCCACCACAUGAUGAUGCCUGAAAAGCCUUGGUUUUUUG [A37C G120A] | 1.02
26 | GACCAAUCUGCCCUCAGAGCUUGAGAACAUCUUCGGAUGCAGAGGAGGUAGGCUUCGGUGGCGCGAUAGCGCCAACGUCCUCAACCUCAAAUGCAUCCCACCACAUGAUGAUGCCUGAAGAGUCUUGGUUUUUUG [C22U C49U C89A C123U] | -6.02
27 | GACCAAUCUGCCCUCAGAGCUCGAGAACAUCUUCGUAUGGAGAGGAGGCAGGCUUCGGUGGCGCGAUAGCGCCAACGUCCUCAACCUCCAAUGCAUCCCACCACAUGAUGAUGCCUGAAGAGCCUUGGUUUUUUG [G36U C40G] | -2.33
28 | GACCAAUCUGCCCUCAGAGCUCGAGAACAUCUUCGGAUGCAGAGGAGGCAGUCUUCGGUGUCGCGAUAGCGCCAACGUCCCCAACCUCCAAUGCAUCCCACCACAUGAUGAUGCUUGAAGAGCCUUGGUUUUUUG [G52U G61U U81C C115U] | -4.28
29 | GACCAAUCUGCCCUCAGAGCUCGAGAACAUCUUCGGAUGGAGAGGAGGCAGGCUUCGGUGGCGCGAUAGCGCCAACGUCCUCAACCUCCAAUGCUUCCCACCACAUGAUGAUGCCUGAAGAGCCUUGGUUUUUUG [C40G A95U] | -3.37
30 | GACCAAUCUGCCCUCAGAGCUCGAGAAGAUCUUCGGAUGCAGAGGAGGCAGGCUUCGGUGGCGCGAUAGCGCUAACGUCCUCAACCUCCAAUGCAUCCCACCACAUGAUGAUGCCUGAAGAGCCUUGGUUUUUUG [C28G C73U] | -2.15
31 | GACCAAUCUGCCCUCAGAGCUCGAGAACAUCUUCGGAUGCAGAGGAGGCAGGUUGCGGUGGCGCGAUAGCGCCAACGUCCUCAACCUCCAAUGCAUCCCACCACAUGAUGAUGCCUGAAGAGCCUUGGUUUUUUG [C53U U55G] | -0.16
32 | GACCAAUCUGCCCUCAGGGCUCGAGAACAUCUUCGGAUGCAGAGGAGGCAGGCUUCGGUGGCGCGAUAGCGCCAACGUCCUCAACCUCCAACGCAUCCCACCAUAUGAUGAUGCCUUAAGAGACUUGGUUUUUUG [A18G U92C C104U G117U C123A] | -2.56
33 | GACCAAUCUGCCCUCAGAGCUCGAGAACAUCUUCGGAUGCUGCGGAGGCAGGCUUCGGUGGCGCGAUAGCGCCAACGUUUUCAACCUCCAAUGCAUCCCACCACAUGAUGAUGCCUGAAGAGCUUUGGUUUUUUG [A41U A43C C79U C80U C124U] | -4.76
34 | GACCAAUCUGCCCUCAGAGCUCGAGAACAUCUUCGGAUGCAGAGGAGGCAGGCUUGGGUGGCGCGAUAUCGCCAACGUCCUCAACCUCCAAUGCAUCCCACCACAUGAUGAUGCCUGAAGAGCUUUGGUUUUUUG [C56G G69U C124U] | 0.715
35 | GACCAAUCUGCCGUCAGAGCUCGAGAACAUCUUCGGAUGCAGAGGAGGCAGGCUUCGGUGGCGCGAUAGCGCUAACGUCCUCAACCUCCACUGCAUCCCACCACAUGAUGAUGCCUGAAGAGCCUUGGUUUUUUG [C13G C73U A91C] | -2.89
36 | GACCAAUCUGCCCUCAGAGGUCGAGAACAUCUUCGGAUGCAGAGGAGGCAGGCUUCGGUGGCGCGAUAGCGCCAACGUCCUCAACCUCCAGUGCAUCCCAACACAUGAUGAUGCCUCAAGAGCCUUGGUUUUUUG [C20G A91G C101A G117C] | -4.92
37 | GACCAAUCUGCCCUCAGAGCUCGAGAACAUCUUCGGAUGCAGAGGUGGCAGGCUUCGGUGGCGCGAUAGCGCCAACGUCCUCAACCUCCAAUGCAUCCCACCACAUGAUGAUGCCUGAAGAGCAUUGGUUCUUUG [A46U C124A U131C] | 1.32
38 | GACCAAUCUGCCCUCAUAGCUCGAGAACAUCUUCGGAUGCAGAGGAGGCAGGCUUCGGUGGCGCGAUAUCGCCAACGUCCUCACCCUCCAAUGCAUCCCACCACAUGAUGAUGCCUGAAGAGCCUUGGUUUUUUG [G17U G69U A84C] | 0.342
39 | GACCAAUCUGCCCUCAGAGCUCGAGAAGAUCCUCGGAUGCAGAGGAGGCAGGCUUGGGUGGCGCGAUAGCGCCAACGUCCUCAACCUCCAAUGCAUCCCACCACAUGAUGAUGCCUAAAGAGCCUUGGUUUUUUG [C28G U32C C56G G117A] | -5.54
40 | GACCAAUCUGCGCUCAGAGCUCGAGAACAUCUUCGGAUGUAGAGGAGGCAGGCUUCGGUGGCGCGAUAGCGCCAACGUCCUCAACCUCCAAUGCAUCCCACCACAUGAUGAUGCCUGAAGAGCCUUGGUUUUUUG [C12G C40U] | -1.51
41 | GACCAAUCUGCCCUCAGAGCUCGAGAACAUCUUCGGAUGCAGAUGAUGCAGGCUCCGGUGGCGCGAUAGCGCCAACGUCCUCAACCUCCAAUGCAUCCCACCACAUGAUGAUGCCUGAAGAGCCUUGGUUUUUUG [G44U G47U U55C] | -2.82
42 | GACCAAUCUGCCCUCAGAGCUCGAGAACAUCUUCGGAUGCAGGGGAGGCAGGCUUCGGUGGCGCGAUAGCGGCAACGUCCUCAACCUCCAAUGCAUCCCACCACAUGAUGAUGCCUGAAGAGCCUUGGUUUAUUC [A43G C72G U132A G135C] | -2.2
